Test results as given in patent US12466854B2, “Peptide useful for the transport of molecules through cell barriers” (UNIVERSITÉ GRENOBLE ALPES, priority 2022, dated 2025).

Tested on: differentiated cellular BBB model
Assay: Study B: permeability of the nanobodies and conjugates through differentiated cellular BBB model (ELISA)
Format: in vitro ADME, rats
Conditions: samples at 60 and 120 min, FIG. 7
Protocol: Cerebral microvessel endothelial cells prepared from 5-week-old male rats were seeded on microporous filters in order to: • evaluate the toxicity of the nanobodies and conjugates during their transfer by kinetic measurement of the sucrose transfer. • evaluate the permeability of the nanobodies and conjugates in the blood/brain direction. Experimental Conditions: • The endothelial cells were seeded on 28 Transwell Polycarbonate filters (porosity 0.4 μm and diameter 12 mm), and cultured in differentiation medium. • The measurement of toxicity (study A) or permeability (study B) of the nanobodies and conjugates was carried out in HBSS Ca/Mg medium supplemented with 0.1% BSA.
For study B, the medium collected at 60 min basolaterally was replaced by the same volume of fresh medium.
The samples collected at 60 and 120 min were analyzed by ELISA test to evaluate the quantity of nanobodies and conjugates which passed during study B. To be able to analyze the different samples by ELISA, it was necessary to first purify them to remove BSA limiting adhesion to 96-well plates of ELISA test. Thanks to the polyhistidine label present on the 3 nanobodies and conjugates, purifications on a 96-well plate coated with Nickel-NTA were carried out. […]
An absorbance reading was carried out at 450 nm after stopping the colorimetric reaction using a 1 N HCl solution. […]

B1: 2C5: anti-Tau nanobody (VHH, SEQ ID NO: 3) detecting pathological oligomeric forms of Tau protein (protein)
VHH: QVQLVQSGGGLVQAGGSLRLSCAASGRTFSSDTLAWFRQAPGKEREFVASISPSGGVTYYEDSVKGRFTISRDNSKNTVLLQMNSLTPEDTAVYYCNRDPKYGNTRYWGQGTQVTVSSAAA
Q: B1 was tested. Which “passage through the BBB model (blood/brain direction)” value did it give?
A: not passing this model
